Laboratory results taken from US20240409647A1 (SINOMAB BIOSCIENCE, published 2024).

Key:
human TSLP (R&D systems) = biological target: T1, human TSLP (R&D systems) (human, UniProt Q969D9 29-159); experiment: BLI (Octet RED96), binder captured via anti-human Fab CH1, TSLP in solution
T1 construct: also called thymic stromal lymphopoietin
Procedure: Biosensors immobilized with irrelevant antibody (SM03, anti-human CD22 chimeric IgG1 antibody, SinoMab BioScience Limited, 20 μg/mL) were used as control reference.

[1] = biological target: T2, human IL-17RB protein (recombinant, R&D systems) (human); experiment: ELISA, coated receptor; SM17 at 0.00064 µg/mL; well 1
T2 construct: Bought protein; also called hIL17RB
T2 sequence (Q9NRM6 whole entry, looked up): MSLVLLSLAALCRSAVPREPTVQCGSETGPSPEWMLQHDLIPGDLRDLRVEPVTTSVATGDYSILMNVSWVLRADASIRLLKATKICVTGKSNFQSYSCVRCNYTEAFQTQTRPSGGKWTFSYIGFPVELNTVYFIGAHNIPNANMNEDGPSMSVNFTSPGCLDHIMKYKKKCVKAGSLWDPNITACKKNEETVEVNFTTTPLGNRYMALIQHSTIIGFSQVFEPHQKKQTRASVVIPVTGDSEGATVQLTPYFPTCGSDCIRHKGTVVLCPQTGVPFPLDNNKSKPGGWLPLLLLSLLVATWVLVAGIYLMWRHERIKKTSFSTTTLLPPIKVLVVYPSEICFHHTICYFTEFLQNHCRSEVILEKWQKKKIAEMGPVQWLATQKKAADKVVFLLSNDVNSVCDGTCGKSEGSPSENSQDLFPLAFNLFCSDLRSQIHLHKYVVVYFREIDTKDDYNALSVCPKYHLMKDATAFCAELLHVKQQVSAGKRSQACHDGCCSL

[2] = biological target: T3, human IL-17 receptor subunit E (human, UniProt Q8NFR9 24-454, limits assumed); experiment: as above
T3 construct: also called hIL17RE
T3 sequence (looked up): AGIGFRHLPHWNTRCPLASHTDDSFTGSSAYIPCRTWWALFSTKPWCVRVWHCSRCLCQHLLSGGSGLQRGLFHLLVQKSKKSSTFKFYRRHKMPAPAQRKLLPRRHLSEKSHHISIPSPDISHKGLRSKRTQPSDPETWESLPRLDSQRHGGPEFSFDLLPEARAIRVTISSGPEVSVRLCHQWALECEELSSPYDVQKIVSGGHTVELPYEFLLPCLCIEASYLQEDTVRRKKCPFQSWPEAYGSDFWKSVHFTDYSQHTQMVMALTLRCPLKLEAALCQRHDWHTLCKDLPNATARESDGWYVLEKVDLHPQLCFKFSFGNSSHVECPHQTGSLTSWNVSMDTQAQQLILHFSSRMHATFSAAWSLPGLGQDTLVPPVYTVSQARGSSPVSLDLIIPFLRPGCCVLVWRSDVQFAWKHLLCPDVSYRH

[3] = biological target: T4, human IL-17 receptor subunit C (human, UniProt Q8NAC3-2 21-467, limits assumed); experiment: as above
T4 construct: also called IL17RC; hIL17RC
T4 sequence (looked up): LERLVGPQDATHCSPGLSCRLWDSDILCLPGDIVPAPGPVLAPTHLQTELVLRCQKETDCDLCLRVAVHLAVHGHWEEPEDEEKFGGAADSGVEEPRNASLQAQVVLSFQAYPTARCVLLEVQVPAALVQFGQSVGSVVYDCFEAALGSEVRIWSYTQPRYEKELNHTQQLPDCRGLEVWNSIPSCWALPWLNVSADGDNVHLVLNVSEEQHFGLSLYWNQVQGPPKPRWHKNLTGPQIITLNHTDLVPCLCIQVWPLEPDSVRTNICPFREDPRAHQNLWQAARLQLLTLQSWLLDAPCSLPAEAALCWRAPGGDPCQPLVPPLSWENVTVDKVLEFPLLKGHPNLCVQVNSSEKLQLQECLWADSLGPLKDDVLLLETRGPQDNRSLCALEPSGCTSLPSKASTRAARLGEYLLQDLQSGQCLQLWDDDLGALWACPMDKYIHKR

[4] = biological target: T5, human IL-17 receptor subunit A (human, UniProt Q96F46 33-320); experiment: as above
T5 construct: also called IL17RA; hIL17RA

[5] = biological target: T6, human IL-17 receptor subunit D (human, UniProt Q8NFM7 28-299, limits assumed); experiment: as above
T6 construct: also called IL17RD; hIL 17RD
T6 sequence (looked up): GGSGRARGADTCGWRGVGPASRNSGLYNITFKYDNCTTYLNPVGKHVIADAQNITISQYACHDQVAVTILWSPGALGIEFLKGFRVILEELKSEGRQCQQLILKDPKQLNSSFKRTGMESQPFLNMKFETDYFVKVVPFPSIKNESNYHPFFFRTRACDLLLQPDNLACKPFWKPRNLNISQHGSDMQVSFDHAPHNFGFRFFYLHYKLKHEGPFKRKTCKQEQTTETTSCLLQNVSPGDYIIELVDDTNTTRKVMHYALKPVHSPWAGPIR

B1: SM17 (antibody, human IgG4 S228P, kappa, V domains shown)
VH: QVQLVQSGAEVKKPGASVKVSCKASGYTFISYWMNWVRQAPGQGLEWMGRIDPYDSEIQYNQKFKDRVTMTRDTSISTAYMELSRLRSDDTAVYYCARSGGFDWFAYWGQGTLVTVSS
VL: DIQMTQSPSSLSASVGDRVTITCRASENINSNLAWYQQKPGKAPKLLLYDVTNLADGVPSRFSGSGSGTDYTLTISSLQPEDFATYYCQHFWGPPYTFGGGTKVEIKR
notes: other paragraphs and claim 15 call the same entries VH and VL; also called humanized anti-IL17RB monoclonal antibody
B1 was tested, and the Kd (human TSLP (R&D systems)) was 100 nM, the koff (human TSLP (R&D systems)) was 0.001 s⁻¹ and the “OD 450 nm Absorption” value [1] was 0.13 OD450. For the same binder, the “OD 450 nm Absorption” value [2] was 0.09 OD450, the “OD 450 nm Absorption” value [3] was 0.13 OD450 and the “OD 450 nm Absorption” value [4] was 0 OD450. The “OD 450 nm Absorption” value [5] was 0.08 OD450.
